Test [1] has as its target T1, human full-length TrkB receptor (human, UniProt Q16620 32-822). Put plainly: cell-based or functional assay.
Test [2] has as its target T2, recombinant human TrkB extracellular domain (FLAG tag-GSA-C32-H430-His5) (human, UniProt Q16620 31-430).
T2 construct: Single alanine mutants were made in this ECD; also called TrkB-ECD; TrkB ECD; not shown: FLAG tag
Put plainly: SPR, human TrkB-ECD. (In general: Surface plasmon resonance follows binding to a sensor surface in real time, without labels.)

Test [3] deals with T1, human full-length TrkB receptor. Put plainly: cell-based or functional assay. The source holds these as a separate data set.
For test [4], the target named is T3, recombinant cynomolgus TrkB-ECD (cynomolgus, UniProt A0A2K5VS06 32-430).
T3 construct: extracellular domain
The test can be described thus: SPR, 1:1 binding mode, recombinant cynomolgus TrkB-ECD.

In test [5] the target is T2, recombinant human TrkB extracellular …. Put plainly: SPR, 1:1 binding mode, recombinant human TrkB-ECD.
For another test, the target named is human FcRn (human, UniProt P55899 24-297; P61769 21-119, limits assumed). The test can be described thus: SPR.
Chain of human FcRn (P55899 24-297 limits assumed, chain 1 of 2): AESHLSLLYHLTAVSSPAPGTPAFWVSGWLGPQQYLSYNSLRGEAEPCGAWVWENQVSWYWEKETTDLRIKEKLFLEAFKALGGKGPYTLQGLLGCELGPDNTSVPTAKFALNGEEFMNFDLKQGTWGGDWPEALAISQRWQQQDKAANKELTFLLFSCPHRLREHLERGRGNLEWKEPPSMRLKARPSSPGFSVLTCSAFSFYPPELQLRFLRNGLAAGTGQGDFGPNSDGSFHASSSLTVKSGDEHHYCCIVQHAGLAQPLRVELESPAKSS
Chain of human FcRn (P61769 21-119 limits assumed, chain 2 of 2): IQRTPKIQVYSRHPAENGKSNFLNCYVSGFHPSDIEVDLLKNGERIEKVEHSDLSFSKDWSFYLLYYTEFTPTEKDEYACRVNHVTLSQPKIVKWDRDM
Test [6] addresses TrkB D1-D3 domain variant (C32-L196) (human, UniProt Q16620 32-196). Put plainly: SPR with TrkB domain deletion variants.
The target of test [7] is T1, human full-length TrkB receptor. The test can be described thus: cell-based or functional assay. This is another data set of the same source.
The target of the next test is T4, rat TrkB receptor (rat, UniProt Q63604 32-821).
T4 construct: whole, on cells; also called rodent TrkB
T4 sequence (Q63604 32-821): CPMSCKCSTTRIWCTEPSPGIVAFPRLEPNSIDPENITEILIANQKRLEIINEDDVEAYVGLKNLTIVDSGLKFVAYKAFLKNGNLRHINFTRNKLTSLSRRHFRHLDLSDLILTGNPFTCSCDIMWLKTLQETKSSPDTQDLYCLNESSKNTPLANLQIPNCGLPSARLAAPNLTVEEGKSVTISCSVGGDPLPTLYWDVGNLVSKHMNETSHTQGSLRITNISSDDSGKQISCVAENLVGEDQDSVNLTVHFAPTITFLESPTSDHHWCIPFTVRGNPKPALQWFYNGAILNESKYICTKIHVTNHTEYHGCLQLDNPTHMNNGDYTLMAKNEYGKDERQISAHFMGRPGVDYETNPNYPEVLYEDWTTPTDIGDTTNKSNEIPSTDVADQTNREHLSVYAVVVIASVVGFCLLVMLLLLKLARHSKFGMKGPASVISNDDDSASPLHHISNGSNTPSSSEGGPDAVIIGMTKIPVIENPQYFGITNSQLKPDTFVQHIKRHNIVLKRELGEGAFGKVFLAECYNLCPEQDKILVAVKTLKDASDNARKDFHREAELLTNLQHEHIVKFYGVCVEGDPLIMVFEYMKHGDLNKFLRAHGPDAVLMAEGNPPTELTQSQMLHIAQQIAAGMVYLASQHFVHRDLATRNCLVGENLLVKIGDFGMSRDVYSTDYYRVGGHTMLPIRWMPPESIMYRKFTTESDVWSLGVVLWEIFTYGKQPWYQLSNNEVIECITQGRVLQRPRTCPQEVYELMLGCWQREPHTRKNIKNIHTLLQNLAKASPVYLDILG
The test can be described thus: recombinant TrkB in a heterologous cell line, primary cells or human iPSC derived cells.

In another test the target is T5, murine TrkB receptor (murine, UniProt P15209 32-821).
T5 construct: whole, on cells; also called mouse TrkB; rodent TrkB
T5 sequence (P15209 32-821): as the sequence (Q63604 32-821) above, with M3T, T9S, T10A, I32V, K63R, G84S, T153M, I185L, T394S, N770S counted along it
The description is as above.

For test [8], the target named is T6, pan-neurotrophin receptor p75^NTR (UniProt P08138 29-427, limits assumed).
T6 construct: whole, on cells
T6 sequence (looked up): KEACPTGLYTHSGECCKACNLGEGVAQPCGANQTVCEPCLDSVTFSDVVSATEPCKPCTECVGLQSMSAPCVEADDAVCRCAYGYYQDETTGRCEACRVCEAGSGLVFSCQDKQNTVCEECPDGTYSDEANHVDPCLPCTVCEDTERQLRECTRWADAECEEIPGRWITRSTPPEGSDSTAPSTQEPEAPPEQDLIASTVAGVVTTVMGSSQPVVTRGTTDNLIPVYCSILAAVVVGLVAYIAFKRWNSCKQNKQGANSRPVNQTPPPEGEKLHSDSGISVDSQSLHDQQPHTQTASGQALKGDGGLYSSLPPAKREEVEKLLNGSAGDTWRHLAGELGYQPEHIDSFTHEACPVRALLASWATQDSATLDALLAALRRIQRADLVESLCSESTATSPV
Put plainly: cell based binding assay.

A further test addresses T7, TrkB_H284-H430 ECD-6H (human, UniProt Q16620 284-430).
T7 construct: the SEC-MALS construct is named only by its residue limits and tag; also called soluble truncated form of the ECD of TrkB
Put plainly: SEC-MALS. For orientation: SEC sorts molecules by how far they enter the pores of the column.

T2 sequence (Q16620 other isoform, or with tags, fused parts or gaps): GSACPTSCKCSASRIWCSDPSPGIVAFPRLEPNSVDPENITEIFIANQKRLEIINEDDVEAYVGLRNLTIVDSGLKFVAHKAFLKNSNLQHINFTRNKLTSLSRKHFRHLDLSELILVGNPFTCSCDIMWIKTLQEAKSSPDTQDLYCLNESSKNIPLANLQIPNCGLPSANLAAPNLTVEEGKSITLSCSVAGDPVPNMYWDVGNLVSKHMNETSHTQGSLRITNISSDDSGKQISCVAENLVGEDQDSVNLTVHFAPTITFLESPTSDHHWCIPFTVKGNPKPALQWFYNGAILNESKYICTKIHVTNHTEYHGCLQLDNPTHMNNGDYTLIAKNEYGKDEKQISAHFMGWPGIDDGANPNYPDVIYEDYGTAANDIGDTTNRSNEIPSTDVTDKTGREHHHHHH
T1 sequence (Q16620 32-822 limits assumed): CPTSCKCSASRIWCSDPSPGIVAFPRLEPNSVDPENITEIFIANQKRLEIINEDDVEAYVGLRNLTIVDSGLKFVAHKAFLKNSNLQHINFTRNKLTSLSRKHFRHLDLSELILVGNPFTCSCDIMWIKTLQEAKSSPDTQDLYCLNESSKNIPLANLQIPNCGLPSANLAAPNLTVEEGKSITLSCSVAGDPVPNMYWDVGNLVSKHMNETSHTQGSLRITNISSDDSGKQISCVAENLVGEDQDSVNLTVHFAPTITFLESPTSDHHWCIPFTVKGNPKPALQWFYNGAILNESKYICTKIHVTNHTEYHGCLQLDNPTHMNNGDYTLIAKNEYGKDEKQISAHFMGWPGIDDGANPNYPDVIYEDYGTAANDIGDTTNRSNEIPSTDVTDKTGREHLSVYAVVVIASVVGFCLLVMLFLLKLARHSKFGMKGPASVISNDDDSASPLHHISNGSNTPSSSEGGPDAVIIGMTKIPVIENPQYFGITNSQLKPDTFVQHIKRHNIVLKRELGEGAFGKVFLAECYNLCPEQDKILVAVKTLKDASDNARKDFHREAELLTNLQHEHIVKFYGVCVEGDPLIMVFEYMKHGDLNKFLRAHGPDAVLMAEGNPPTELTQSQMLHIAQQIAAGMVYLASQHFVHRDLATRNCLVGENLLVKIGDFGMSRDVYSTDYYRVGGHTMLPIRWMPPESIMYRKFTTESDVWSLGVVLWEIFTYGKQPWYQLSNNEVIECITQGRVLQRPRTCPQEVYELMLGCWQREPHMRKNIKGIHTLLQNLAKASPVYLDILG
T7 sequence (Q16620 other isoform, or with tags, fused parts or gaps limits assumed): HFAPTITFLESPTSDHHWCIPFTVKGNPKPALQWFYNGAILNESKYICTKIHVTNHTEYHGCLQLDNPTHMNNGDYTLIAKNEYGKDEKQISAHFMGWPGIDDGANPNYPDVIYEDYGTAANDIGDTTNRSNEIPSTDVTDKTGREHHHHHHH
Chain of TrkB D1-D3 domain variant (C32-L196) (Q16620 32-196 limits assumed, stated change not applied): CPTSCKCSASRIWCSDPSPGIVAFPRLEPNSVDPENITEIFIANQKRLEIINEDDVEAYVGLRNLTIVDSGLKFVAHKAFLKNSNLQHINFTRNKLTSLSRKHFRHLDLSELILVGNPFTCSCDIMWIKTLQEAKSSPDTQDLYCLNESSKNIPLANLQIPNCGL

B1: 8E5 (murine TrkB agonist monoclonal antibody) (antibody, mouse IgG1, kappa, V domains shown)
VH: EVQLVESGGDLVKPGGSLKLSCAASGFTFSTYGMSWVRQTPDKGLEWVATVSTGGTYTYYPDSVKGRFTISRDNAKNTLYLQMSSLKSEDTAMYYCARGGYSFAYWGQGTLVTVSA
VL: ENVLTQSPAIMSASPGEKVTMTCRASSSVSSSYLHWYQQKSGVSPKLWIYSTSNLASGVPARFSGSGSGTSYSLTISSVEAEDAATYYCQQYSGYPLTFGAGTKLELKR
notes: Full length murine chains
B1: in [1], the “Activation of TrkB (pTrkB), EC50” value was approximately 15 nM and the “Potentiation of BDNF-induced agonism of TrkB (pTrkB, BDNF alone = 100%)” value (“Potentiation … (pTrkB, BDNF alone = 100%)” for short) was approximately 120%. In [2], the dissociation constant (Kd) was approximately 9.8 nM, the koff is 0.000676 s⁻¹ and the kon was 69000 M⁻¹ s⁻¹. Moreover, in test [3], the “cell survival, EC50” value turned out to be 0.09 nM and the “neurite outgrowth, EC50” value was determined as 1.58 nM.

B2: Humanised 1G11 (H7, Lo1) (antibody, human IgG1, kappa)
heavy: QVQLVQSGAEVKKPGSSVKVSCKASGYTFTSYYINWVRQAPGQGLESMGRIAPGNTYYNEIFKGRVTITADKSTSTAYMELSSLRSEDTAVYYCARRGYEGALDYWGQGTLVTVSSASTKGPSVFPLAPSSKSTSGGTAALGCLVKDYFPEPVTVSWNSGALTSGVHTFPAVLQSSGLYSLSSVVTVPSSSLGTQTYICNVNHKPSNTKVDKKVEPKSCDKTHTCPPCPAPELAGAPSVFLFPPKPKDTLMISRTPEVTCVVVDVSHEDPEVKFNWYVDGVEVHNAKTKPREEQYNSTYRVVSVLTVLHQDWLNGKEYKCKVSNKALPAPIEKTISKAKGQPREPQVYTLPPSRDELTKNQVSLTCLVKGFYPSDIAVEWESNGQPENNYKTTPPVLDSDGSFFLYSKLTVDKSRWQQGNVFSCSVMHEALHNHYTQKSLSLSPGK
light: EIVLTQSPATLSLSPGERATLSCRASQRISNNLHWYQQKPGQAPRLLIKYVSQSISGIPARFSGSGSGTDFTLTISSLEPEDFAVYYCQQSNSWPLTFGQGTKLEIKRTVAAPSVFIFPPSDEQLKSGTASVVCLLNNFYPREAKVQWKVDNALQSGNSQESVTEQDSKDSTYSLSSTLTLSKADYEKHKVYACEVTHQGLSSPVTKSFNRGEC
notes: Straight graft with serine at Kabat position 47 of VH; human IgG1 Fc with L235A and G237A (EU), Fc-disabled
Regarding B2, the Kd in test [4] is approximately 60 nM. The equilibrium dissociation constant (Kd) in test [5] was approximately 55 nM. In addition, in the test with human FcRn, the binding result is on record as “binds”. Moreover, in test [3], the “Activation of TrkB (pTrkB), EC50, CHO-K1 cells” value was determined as 0.65 nM; the “cell survival, rat PC12 cells stably expressing human full length TrkB, EC50” value turned out to be 0.007 nM; the “neurite outgrowth, rat PC12 cells stably expressing human full length TrkB, EC50” value amounted to 0.07 nM.

B3: 1G11 (murine TrkB agonist monoclonal antibody) (antibody, V domains shown)
VH: QVQLQQSGDDLVKPGASVKLSCKASGYTFTSYYINWIKQRPGQGLECIGRIAPGNTYYNEIFKGKAILTVDTSSSTAYIQLSSLSSEDSGVYFCARRGYEGALDYWGQGTSVTVSS
VL: DIVLTQSPATLSVTPGDSVSLSCRASQRISNNLHWYQQKSHESPRLLIKYVSQSISGIPSRFSGSGSGTDFTLSINSVETEDFGMYFCQQSNSWPLTFGAGTKLELKR
notes: Full length murine heavy and light chains; from a hybridoma of Balb/c mice immunised with human TrkB-ECD; Not Fc-disabled; also called 1G11 mAb; murine 1G11
Take B3: the binding result in [6] was “no binding”. For the same molecule, in test [1], the “Activation of TrkB (pTrkB, Y515), EC50, CHO-K1 cells” value was determined as 3.1 nM and the “Potentiation … (pTrkB, BDNF alone = 100%)” value was approximately 130%. Moreover, in test [7], the “EC50 (read off the curve), potentiation of pTrkB in the presence of 10 nM BDNF” value was approximately 10 nM. Further, the binding result in the test with rat TrkB receptor is on record as “binds”. Further, the binding result in the test with murine TrkB receptor is “binds”. Besides, in test [2], the Kd was approximately 42 nM, the koff stood at 0.00239 s⁻¹ and the on-rate constant (kon) was 56600 M⁻¹ s⁻¹. Also, in [3], the “cell survival, rat PC12 cells stably expressing human full length TrkB, EC50” value worked out at 0.025 nM and the “neurite outgrowth, rat PC12 cells stably expressing human full length TrkB, EC50” value amounted to 0.19 nM. In addition, the binding result in test [8] is on record as “no binding”.

B4: 3A3 (murine TrkB agonist monoclonal antibody) (antibody, mouse IgG1, kappa, V domains shown)
VH: QVQLQQSGAELAKPGASVKMSCKASGYTFSSYWMHWVKQRPGQGLEWIGYINPSTGYTDYNQKFKDKATLTADKSSNTAYMQLSSLTSDDSAVYYCARSRAARYWGQGTTLTVSS
VL: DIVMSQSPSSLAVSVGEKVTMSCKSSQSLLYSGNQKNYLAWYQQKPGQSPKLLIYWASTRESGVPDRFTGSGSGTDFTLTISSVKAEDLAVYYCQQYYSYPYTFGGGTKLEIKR
notes: Full length murine chains; also called 3B3; 3A3 (=3B3)
For B4, in [1], the “Activation of TrkB (pTrkB), EC50” value was in the range of 0.2 to 0.6 nM and the “Potentiation … (pTrkB, BDNF alone = 100%)” value is approximately 160%. For the same molecule, the “EC50 (read off the curve), potentiation of pTrkB in the presence of 10 nM BDNF” value in test [7] was approximately 0.7 nM. Also, in test [2], the Kd was approximately 7.5 nM, the koff stood at 0.000897 s⁻¹ and the kon was 120000 M⁻¹ s⁻¹. Besides, in [3], the “cell survival, EC50” value amounted to 0.006 nM.

B5: Brain Derived Neurotrophic Factor (BDNF) (ligand, UniProt P23560 129-247, looked up)
chain: HSDPARRGELSVCDSISEWVTAADKKTAVDMSGGTVTVLEKVPVSKGQLKQYFYETKCNPMGYTKEGCRGIDKRHWNSQCRTTQSYVRALTMDSKKRIGWRFIRIDTSCVCTLTIKRGR
notes: also called BNDF
B5: the binding result with TrkB_H284-H430 ECD-6H is “binds”.

B6: 5D11 (murine TrkB agonist monoclonal antibody) (antibody, mouse IgG1, kappa, V domains shown)
VH: QVHLQQSGAELVRPGTSVKVSCKASGYAFTNYLIEWIKQRPGQGLEWIGVINPGSGGTNYNDKFKGKAILTADKSSTTAYMQLSSLTSDDSAVYFCARGGNDYGDYWGQGTSVTVSS
VL: DIVLTQSPASLAVSLGQRATISCRASQSVSTSFYSYMHWYQQKPGQPPKVFIKYASNLQSGVPARFSGSGSGTDFTLNIHPVEEDDTATYYCQHSWEIPWTFGGGTKLEIKR
notes: Full length murine chains; same as 3E10; also called 3E10; 5D11 (=3E10)
Consider B6, for which the “Activation of TrkB (pTrkB), EC50” value in [1] is 1 to 2 nM. In test [2], the Kd was approximately 3.3 nM, the koff is 0.000145 s⁻¹ and the kon amounted to 44100 M⁻¹ s⁻¹.

As a reminder, the Kd is the equilibrium constant for the complex coming apart. As a reminder, the koff is a measure of how fast the partners let go of each other. As a reminder, the kon is the rate constant with which the complex forms.

The values are drawn from US9914781 (GlaxoSmithKline, dated 2018).
